The values below come from PMC6721605.

The target of the test is dynamin-like protein B (dlpB) of Dictyostelium discoideum (Dictyostelium discoideum (endogenous in AX2)) (UniProt Q54MH8). Nature of the test: co-IP; anti-dlpB antibodies on Dynabeads protein G; lysate of partially synchronized (mitotic) wild-type cells (10 °C 16 h, then 10 µM thiabendazole 3.5 h); lysis buffer 150 mM NaCl, 5 mM EGTA, 5 mM EDTA, 1% Triton X-100, 20 mM Tris-HCl pH 7.5; western blot with anti-dlpA and anti-dlpB. Background: A western blot detects proteins with antibodies after separation by electrophoresis.
Sequence of UniProt Q54MH8 (Q54MH8 whole entry): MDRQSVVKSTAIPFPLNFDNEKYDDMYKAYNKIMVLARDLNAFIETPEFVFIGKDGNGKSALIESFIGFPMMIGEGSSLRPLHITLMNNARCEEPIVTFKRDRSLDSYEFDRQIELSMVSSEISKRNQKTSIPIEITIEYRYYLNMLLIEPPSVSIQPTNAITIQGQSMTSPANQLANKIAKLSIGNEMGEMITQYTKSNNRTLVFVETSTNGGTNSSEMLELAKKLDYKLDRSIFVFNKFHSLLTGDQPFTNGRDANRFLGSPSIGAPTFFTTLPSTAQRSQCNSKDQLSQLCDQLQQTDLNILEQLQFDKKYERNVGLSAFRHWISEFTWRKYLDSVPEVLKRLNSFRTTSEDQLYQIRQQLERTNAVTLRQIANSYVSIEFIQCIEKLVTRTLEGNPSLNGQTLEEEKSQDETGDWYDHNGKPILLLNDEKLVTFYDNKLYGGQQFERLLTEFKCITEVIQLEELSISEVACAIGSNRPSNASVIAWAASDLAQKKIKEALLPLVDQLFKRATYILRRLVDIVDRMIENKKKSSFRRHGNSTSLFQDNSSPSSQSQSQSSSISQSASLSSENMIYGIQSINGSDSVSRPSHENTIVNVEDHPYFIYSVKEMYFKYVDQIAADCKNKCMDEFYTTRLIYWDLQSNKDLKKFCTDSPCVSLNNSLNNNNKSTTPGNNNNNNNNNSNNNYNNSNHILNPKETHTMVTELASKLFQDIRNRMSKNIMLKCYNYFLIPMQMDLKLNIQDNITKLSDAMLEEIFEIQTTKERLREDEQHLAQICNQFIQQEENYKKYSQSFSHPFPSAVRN

B1: dynamin-like protein A (dlpA) of Dictyostelium discoideum (natural protein)
chain: MSVFKKKDKSDDKKKKHDEETPQGTFQPASQSTSNTNLNSLASSVNNGASVGSTNGSTPNNSNGSTPTYNHNNSAEELEKQKKEEDEKRKKSELEAAAAVVAKKKEDEEKQRKEQVELERKRRDEEIRRTNAAAANAANKELNEQVEISSLEQMGKLDPSSTIHDMFSFFPNEVYNSYEKLQYFSRDLNTAVSHPEIVFVGPRSSGKSSLIEAFIGRALNIVGGGNIVGVGGSNANGCSKRVLYLQFTNNIDFEVPKVTIKKDNTIKEFDHDIIVSIEQLNENLAKRNQLTNDYIEEPIYVSIESRTTLNLTLIDSPGLLFDQSQAESNKIESIVSSLLRPSHRLIIAVESCSQDWKSMSMGQYLKKIDPELSRSTFVFTKFHHTVRGFSSTRDINKYLSGTVPDIKGFFVTLPNHQVRASYSEANRFQEKIYQAHKRDMHALEQLQYDKRYERTIGVAPLRRYILNIVWKSYQDTIPRILKHLRSKRQTAEATLNELQKQSSSLDSTKLRSIASNYTVTFLQITEKLLSGTSEGNPSANGQTLDEEKSQQGDCGEWVDAYKEAIYIDPEEWNIPYWSSKLYGGQQLERLMAEFKAVCDNSKISEVKMDDIATASGINKLNNIPNYAWAASDLTSLISRDTFVPLIEQLCERAMYIMKRLTDIADKVIDSRRKSRCIGSSPFGGNGLNNINSGGNNGININDRLSNTDMDSLDQYPFFTHHVKNLYYDFVHRAAKGCKEKCMDEFYSSRTIYWELTEHPDSSLPSIRNDHHETKTAVCQLATKLFDSIRQRITKNVLLKLYNFFLVPMQTDLWNEIQAQITCLSNEQLEQLFEVQATREQLKQEEKKQQQILEKYSQIDEQFLKAASLFCRPLSNPTPSA
B1 had an amount of dlpA in the IP fraction as percent of that in supernatant of 58%.
